Results on eight molecules are retold here after publication PMC9947658, “Escherichia coli CspA stimulates translation in the cold of its own mRNA by promoting ribosome progression”.

Data set [1] concerns the target T1, CspA (Escherichia coli, UniProt P0A9X9 1-70). Kind of data set: tryptophan fluorescence quenching; 20°C; text calls the G6A variant oligo 6, table and Fig S10 oligo 5; Trp fluorescence: 1 uM CspA, Buffer H, 20°C; EMSA: Buffer O, 15 or 37°C, 10% native PAGE at 4°C; Fe-EDTA footprinting: Buffer N, 15°C; UV cross-linking at 15°C; buffer compositions not given in the material. Particulars: protein: recombinant; tags: His-tag (pETM11) removed with TEV; single strand.

Data set [2] concerns the target T1, CspA. Kind of data set: tryptophan fluorescence quenching; 20°C; Trp fluorescence: 1 uM CspA, Buffer H, 20°C; EMSA: Buffer O, 15 or 37°C, 10% native PAGE at 4°C; Fe-EDTA footprinting: Buffer N, 15°C; UV cross-linking at 15°C; buffer compositions not given in the material. Conditions: protein: recombinant; tags: His-tag (pETM11) removed with TEV; single strand. For orientation: A gel shift assay detects complexes by their altered migration in electrophoresis.

The target of data set [3] is Escherichia coli 30S ribosomal subunits (E. coli). In words: ITC; control experiment: IF1 and 30S subunits, at low temperature, under comparable conditions; ITC buffer.

As a reminder, the Kd is the concentration at which binding is half-saturated.

T1 sequence (P0A9X9 whole entry): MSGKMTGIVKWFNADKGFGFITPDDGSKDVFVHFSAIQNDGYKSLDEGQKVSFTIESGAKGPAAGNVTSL

AACUGAUA (ssRNA) [Oligo 5]: the Kd with CspA [1] was found to be 4860 ± 240 nM.
Turning to AAAAAAAAA (ssRNA) [Oligo 7 (poly-A)], in the data set with CspA [2], the Kd worked out at 5130 ± 1150 nM.
Same read-out and setting: for AACAGGUA (ssRNA) [Oligo 3] the value was 1240 ± 50 nM.

B1: initiation factor IF1 (natural protein)
chain: MAKEDNIEMQGTVLETLPNTMFRVELENGHVVTAHISGKMRKNYIRILTGDKVTVELTPYDLSKGRIVFRSR
The molecule B1 displayed a Kd in data set [3] of 806 nM.
With AACUGGAA (ssRNA) [Oligo 6], the Kd in the data set with CspA [2] came out at 2080 ± 140 nM.
Same read-out and setting: the same measure for AACUAGUA (ssRNA) [Oligo 4]: 1030 ± 60 nM; for AACUGGUA (ssRNA) [Oligo 1]: 1240 ± 80 nM; for AAAUGGUA (ssRNA) [Oligo 2]: 2300 ± 130 nM.
